Patent publication US20250388640A1 (SYNTHEKINE, published 2025)
Positions count from the first letter of the chain named. In names and notes the source's numbering stands.

B1: human IL12 mutein, hIL-12p40 E81A, F82A with hIL-12p35-8X His (ligand)
chain 1: IWELKKDVYVVELDWYPDAPGEMVVLTCDTPEEDGITWTLDQSSEVLGSGKTLTIQVKAAGDAGQYTCHKGGEVLSHSLLLLHKKEDGIWSTDILKDQKEPKNKTFLRCEAKNYSGRFTCWWLTTISTDLTFSVKSSRGSSDPQGVTCGAATLSAERVRGDNKEYEYSVECQEDSACPAAEESLPIEVMVDAVHKLKYENYTSSFFIRDIIKPDPPKNLQLKPLKNSRQVEVSWEYPDTWSTPHSYFSLTFCVQVQGKSKREKKDRVFTDKTSATVICRKNASISVRAQDRYYSSSWSEWASVPCS
chain 2: RNLPVATPDPGMFPCLHHSQNLLRAVSNMLQKARQTLEFYPCTSEEIDHEDITKDKTSTVEACLPLELTKNESCLNSRETSFITNGSCLASRKTSFMMALCLSSIYEDLKMYQVEFKTMNAKLLMDPKRQIFLDQNMLAVIDELMQALNFNSETVPQKSSLEEPDFYKTKIKLCILLHAFRIRAVTIDRVMSYLNASGSHHHHHHHH
B2: human IL12 mutein, hIL-12p40 E81I, F82A with hIL-12p35-8X His (ligand)
chain 1: B1 chain 1 with A59I
chain 2: B1 chain 2
B3: human IL12 mutein, hIL-12p40 E81A, F82A, K106A with hIL-12p35-8X His (ligand)
chain 1: B1 chain 1 with K84A
chain 2: B1 chain 2
B4: human IL12 mutein, hIL-12p40 E81K, F82A with hIL-12p35-8X His (ligand)
chain 1: B1 chain 1 with A59K
chain 2: B1 chain 2

Legend:
Experiment in all cases: cell-based or functional assay
[1] = biological target: T1, hIL-12 receptor signaling complex (hIL-12Rβ1 and hIL-12Rβ2) (human, UniProt P42701 24-662; Q99665 24-862)
[2] = biological target: T1, hIL-12 receptor signaling complex …; remark: listed apart in the source
[3] = biological target: T1, hIL-12 receptor signaling complex …; remark: listed apart in the source
[4] = biological target: T1, hIL-12 receptor signaling complex …; remark: listed apart in the source

T1 sequence (Q99665 24-862, chain 2 of 2, other chains not shown): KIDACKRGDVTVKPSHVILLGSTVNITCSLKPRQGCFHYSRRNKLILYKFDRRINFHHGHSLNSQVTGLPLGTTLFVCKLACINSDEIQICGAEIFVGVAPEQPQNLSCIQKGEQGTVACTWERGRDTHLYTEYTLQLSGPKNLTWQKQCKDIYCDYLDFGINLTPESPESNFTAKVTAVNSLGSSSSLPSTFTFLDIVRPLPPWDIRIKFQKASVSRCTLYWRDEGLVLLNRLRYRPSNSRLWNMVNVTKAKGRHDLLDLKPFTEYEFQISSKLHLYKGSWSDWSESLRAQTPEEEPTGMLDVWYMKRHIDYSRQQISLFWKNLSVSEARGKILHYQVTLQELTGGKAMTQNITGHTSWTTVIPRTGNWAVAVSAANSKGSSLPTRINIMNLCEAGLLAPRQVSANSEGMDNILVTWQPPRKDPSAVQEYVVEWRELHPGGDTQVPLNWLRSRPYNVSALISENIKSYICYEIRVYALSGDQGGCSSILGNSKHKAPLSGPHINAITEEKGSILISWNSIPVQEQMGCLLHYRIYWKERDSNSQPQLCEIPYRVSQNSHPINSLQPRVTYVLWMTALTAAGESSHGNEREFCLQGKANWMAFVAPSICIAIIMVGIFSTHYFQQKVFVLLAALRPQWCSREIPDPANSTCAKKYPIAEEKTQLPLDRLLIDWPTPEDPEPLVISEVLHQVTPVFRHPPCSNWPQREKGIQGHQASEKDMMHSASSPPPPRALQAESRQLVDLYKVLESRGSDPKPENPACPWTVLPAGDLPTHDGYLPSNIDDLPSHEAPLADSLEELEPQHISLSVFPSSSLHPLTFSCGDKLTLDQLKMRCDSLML

| Binder | IFNy [gMFI] EC50, CD8+ T Cells [1] [nM] | IFNy [gMFI] EC50, CD56hi NK Cells [1] [nM] | IFNy [gMFI] Emax, CD8+ T Cells [1] [gMFI] | IFNy [gMFI] Emax, CD56hi NK Cells [1] [gMFI] | IFNy [%+] EC50, CD8+ T Cells [2] [nM] | IFNy [%+] EC50, CD56hi NK Cells [2] [nM] | IFNy [%+] Emax, CD8+ T Cells [2] [%+] | IFNy [%+] Emax, CD56hi NK Cells [2] [%+] | pSTAT4 [gMFI] EC50, CD8+ T Cells [3] [nM] | pSTAT4 [gMFI] EC50, CD56hi NK Cells [3] [nM] | pSTAT4 [gMFI] Emax, CD8+ T Cells [3] [gMFI] | pSTAT4 [gMFI] Emax, CD56hi NK Cells [3] [gMFI] | pSTAT4 [%+] EC50, CD8+ T Cells [4] [nM] | pSTAT4 [%+] EC50, CD56hi NK Cells [4] [nM] | pSTAT4 [%+] Emax, CD8+ T Cells [4] [%+] | pSTAT4 [%+] Emax, CD56hi NK Cells [4] [%+] |
| --- | --- | --- | --- | --- | --- | --- | --- | --- | --- | --- | --- | --- | --- | --- | --- | --- |
| B1 | 0.41 | 2.56 | 17100 | 187000 | 0.095 | 0.02 | 81.5 | 94 | 6.6 | 5.94 | 100000 | 25000 | 1.13 | 1.85 | 80.2 | 85.2 |
| B2 | 0.55 | 1.48 | 11700 | 313000 | 0.37 | 0.061 | 68.3 | 93.7 | – | – | – | – | – | – | – | – |
| B3 | 1.4 | 2.8 | 15000 | 140000 | 0.533 | 0.079 | 78.4 | 90.8 | 9.75 | 156 | 86900 | 35700 | 1.86 | 4.03 | 77.7 | 86.9 |
| B4 | 0.51 | 0.62 | 13200 | 123000 | 0.305 | 0.046 | 78.5 | 93.7 | – | – | – | – | – | – | – | – |
